Data from patent US9074002B2, “PTP1B inhibitors” (Cold Spring Harbor Laboratory, priority 2009, dated 2015).

T1: PTP1B (reduced, active) (Homo sapiens, UniProt P18031)
T1 construct: made in house; host or cells: E. coli BL21 (pET19b)
T1 sequence (P18031 3-277 limits assumed): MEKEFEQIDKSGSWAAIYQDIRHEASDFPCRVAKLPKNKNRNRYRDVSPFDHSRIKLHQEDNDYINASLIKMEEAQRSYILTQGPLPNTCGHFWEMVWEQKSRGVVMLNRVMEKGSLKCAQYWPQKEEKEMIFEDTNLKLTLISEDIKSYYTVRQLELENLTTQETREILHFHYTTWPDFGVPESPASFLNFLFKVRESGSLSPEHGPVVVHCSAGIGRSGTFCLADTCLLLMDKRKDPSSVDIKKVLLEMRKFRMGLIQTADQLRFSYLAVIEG

T2: PTP1B-OX (Homo sapiens, UniProt P18031)
T2 construct: made in house; host or cells: E. coli BL21 (pET19b)
T2 sequence (P18031 3-277): T1 sequence (P18031 3-277 limits assumed)

T3: PTP1B under reducing condition (Homo sapiens, UniProt P18031)
T3 construct: made in house; host or cells: E. coli BL21 (pET19b)
T3 sequence (P18031 3-277 limits assumed): T1 sequence (P18031 3-277 limits assumed)

B1: scFv45: conformation-sensor scFv binding PTP1B-OX, SEQ ID NO: 26 and 78; expressed as intrabody (protein)
scFv: MKKTAIAIAVALAGFATVAQAALTQPSSVSANPGGTVKITCSGSSSAYGYGWYQQKSPGSAPVTVIYNNNKRPSNIPSRFSGSKSGSTGTLTITGVQAEDEAVYFCGSEDSSTDAIFGAGTTLTVLGQSSRSSTVTLDESGGGLQAPGGALSLVCKASGFTFSSYDMGWIRQAPGKGLEYVAGITDNGRYASYGSAVDGRATISRDNGQSSVRLQLNNLRAEDTGTYYCARDDGSGWTGNSIDAWGHGTEVIVSSTSGQAGQHHHHHHGAYPYDVPDYAS
B2: scFv57: scFv binding PTP1B-OX, SEQ ID NO: 27 and 90 (protein)
scFv: MKKTAIAIAVALAGFATVAQAALTQPSSVSANPGAFNKITCSGSSSAYGYGWNQQKSPGSAPVTVIYNNNKRPSNIPSRFSGSKSGSTGTLTITGDQDEDEDFYFCGSEYSSTDAIFGAGTTLTVLGQSSRSSTVTLDESGGGLQAPGGALSLVCKASGFTFSSYDMGWIPQAPGKGLEYVAGITDNGIYASYGSAVDGRATISRDNRQSSVKLQLNNLKADDTGTYYCARDDGSGWTGNSIDAWGHGTEVIVSSTSGQAGQHHHHHHGAYPYDVPDYAS

How the values were obtained:
PTP1B (reduced, active) = target: T1, PTP1B (reduced, active); test: Direct effect of scFvs/antibodies on PTP1B phosphatase activity (32P-pTyr-RCML substrate); assay type: biochemical; conditions: 32P-labeled pTyr-RCML substrate, FIG. 1
Procedure: (§1) Applicant's hypothesis was that scFvs that are able to bind to and stabilize the oxidized conformation of PTP1B in solution would inhibit reactivation by reducing agent, but have no direct inhibitory effect on phosphatase activity in assays in vitro. Activity was measured using ^32P-labeled pTyr-Reduced Carboxamidomethylated and Maleylated Lysozyme as substrate. Applicant established conditions in which wild type PTP1B could be reversibly oxidized in vitro. PTP1B was inactivated following addition of H2O2. […] Applicant validated this approach further, by testing the effects of expressing one of the scFvs (scFv45) as a single chain antibody fragment “intrabody” to PTP1B, using 293T cells as the expression system. This intrabody was expressed transiently and then tested for effects on insulin signaling, focusing initially on the tyrosine phosphorylation status of the beta-subunit of the insulin receptor and insulin receptor substrate (IRS-1).
(§2) Reduced carboxamidomethylated and maleylated lysozyme (RCML) was labeled with ^32P using recombinant GST-FER kinase to stoichiometries up to 0.8 (mol ^32P incorporated/mol of protein). This ^32P-Labeled phospho-tyrosyl RCML was used as the substrate in the in-solution phosphatase assay for screening the conformation sensor scFvs. Recombinant PTP1B was reversibly oxidized and transiently inactivated with H2O2 (5× molar excess of the protein). […] Purified bacterially expressed scFvs (100× molar excess of PTP1B) were incubated with PTP after H2O2 treatment and its removal and the effect of individual scFv on stabilizing the reversibly oxidized conformation was assessed by the phosphatase assay under reducing condition.
In order to screen the isolated scFvs for those that inhibit reactivation of PTP1B-OX by reducing agent, but have no direct inhibitory effect on phosphatase activity in assays in vitro, the effect of six scFvs (scFv20, scFv34, scFv45, scFv57, scFv64 and scFv106) on PTP1B activity was determined. PTP1B activity was measured using 32P-labeled pTyr-Reduced Carboxamidomethylated and Maleylated Lysozyme as substrate (FIGS. 1 and 2). Addition of the reducing agent TCEP alone had no substantial effect in PTP1B activity was assessed.

PTP1B-OX [1] = target: T2, PTP1B-OX; test: Inhibition of reactivation of reversibly oxidized PTP1B by reducing agent (RCML phosphatase assay); assay type: biochemical; conditions: PTP1B oxidized with H2O2, buffer exchange, TCEP added; FIG. 2
Procedure: as §1, §2
In a different experiment, conditions were established in which wild type PTP1B could be reversibly oxidized in vitro. […] Addition of the reducing agent alone had no substantial effect on PTP1B activity (FIGS. 1 and 2, “PTP1B”).

PTP1B-OX [2] = target: T2, PTP1B-OX; test: In vitro binding assay, purified recombinant PTP1B (37 kDa) and purified scFv, Ni-NTA pull down; conditions: purified proteins, scFv in molar excess, 2 hours at 4° C.; FIG. 9
Procedure: (§3) They established conditions in which PTP1B is reversibly oxidized by H2O2 in solution (FIG. 8). An artificial protein substrate RCML, in which tyrosine was phosphorylated with ^32P using recombinant GST-FER kinase was used in this assay to measure the phosphatase activity. Recombinant PTP (37 kDa) was incubated with increasing concentration (50 μM to 100 mM) of H2O2. A quick buffer exchange was done to remove the H2O2 and reducing agent (TCEP) was added to reactivate the enzyme.
(§4) In the in vitro binding assay, purified PTP was reversibly oxidized with […] followed by a quick buffer exchange to remove H2O2 (FIG. 8). Purified scFv was incubated in molar excess with PTP1B-OX or with PTP under reducing condition (with 2 mM TCEP) in binding buffer (20 mM HEPES, pH 7.4, 300 mM NaCl, 0.05% BSA, 0.05% Tween-20 and 10 mM imidazole) for 2 hours at 4° C. Ni-NTA agarose was added and incubated for one hour at 4° C. Protein complex bound to Ni-NTA agarose beads was pulled down and washed (three times, 5 minutes each, at 4° C.) with binding buffer containing 20 mM imidazole to reduce non-specific binding to the beads. The protein complex was eluted from the Ni-NTA agarose beads with 500 mM imidazole (in binding buffer, pH 7.4) for 15 minutes at 4° C. with gentle shaking. The complex was separated by SDS-PAGE and PTP1B was detected with anti-PTP1B antibody (FG6) and scFv was detected with anti-HA antibody [anti-HA (3F10)-HRP, Roche] by immunoblotting. Eight different scFvs (scFvs 20, 21, 24, 28, 45, 48, 57, and 105), expressed and purified from bacterial cultures were tested by this in vitro binding experiment.

[3] = target: T3, PTP1B under reducing condition; test: In vitro binding assay, purified recombinant PTP1B (37 kDa) and purified scFv, Ni-NTA pull down, reducing condition; conditions: with 2 mM TCEP; FIG. 9
Procedure: as §3, §4

| Molecule | direct effect on PTP1B activity (PTP1B (reduced, active)) | inhibition of reactivation of PTP1B-OX by reducing agent (restoration of PTP1B activity after reversible oxidation) (PTP1B-OX [1]) | binding to PTP1B-OX in vitro (PTP1B-OX [2]) | binding to PTP1B under reducing condition in vitro [3] |
| --- | --- | --- | --- | --- |
| B1 | no direct inhibition of PTP activity | substantial inhibition of the restoration of PTP1B activity | specific binding to PTP1B-OX | not to PTP under reducing condition |
| B2 | no direct inhibition of PTP activity | substantial inhibition of the restoration of PTP1B activity | specific binding to PTP1B-OX | not to PTP under reducing condition |
